Data on one molecule can be found in patent US6861578B1, “Method for plant protection against insects or nematodes by transformation with a nucleic acid encoding equistatin” (Plant Research International B.V., priority 1997, dated 2005).

The target in data set [1] is T1, papain (Carica papaya, UniProt P00784).
T1 sequence (P00784 134-345): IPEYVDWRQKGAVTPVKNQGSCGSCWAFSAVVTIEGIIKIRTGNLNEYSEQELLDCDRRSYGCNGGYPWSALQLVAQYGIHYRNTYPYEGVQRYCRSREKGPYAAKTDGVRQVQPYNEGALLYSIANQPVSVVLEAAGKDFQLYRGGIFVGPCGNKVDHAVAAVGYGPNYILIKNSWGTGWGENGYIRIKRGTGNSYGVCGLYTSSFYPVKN
Briefly: Kinetic analysis of papain inactivation (continuous rate assay). It counts as biochemical.

The test system of data set [2] is amino-peptidase activity of Colorado potato beetle larval gut extracts. Briefly: Amino-peptidase activity of Colorado potato beetle gut extract, L-Arg-pNA. It counts as biochemical, Leptinotarsa decemlineata. The text has this:
(§1) Guts of final instar Colorado potato beetle larvae reared on methyl jasmonate induced plants were isolated and extracted essentially as described (Bolter and Jongsma, J. Insect Physiol. 41: 1071-1078). In these gut extracts the proteases that are sensitive to the protease inhibitors of potato are already complexed. The residual protease activity is composed of potato protease-inhibitor-insensitive proteases which were induced in response to the methyl jasmonate induced potato inhibitors. These proteases are the proteases that render the beetle larvae insensitive to protease inhibitor defense of the potato plant. Wle tested a broad range of different cysteisie protease inhibitors for activity specifically against these induced potato protease inhibitor-insensitive cysteine protesses. Nearly all of these inhibitors were purified at the Jozef Stefan Institute in Slovenia. Testing their potential against Colorado potato beetle was done using both general protein substrates (azocasein, table 2) as well as specific synthetic substrates (L-Arg-pNA, table 3; pGlu-Phe-Leu-pNA, table 4; Z-Phe-Arg-pNA, table 5; Z-Arg-Arg-pNA, table 6). In specific cases inhibitors were tested at two concentrations, eauimolar and in excess to the protease, in order to obtain an indication of the tightness of the complex. […] Importantly, this class of inhibitors was capable of inhibiting nearly all general cysteine protease activity. The equistatin peptide molecule and a functional derivative thereof were not very active against the aminopeptidase-like cysteine protease activity. […] The best combination of inhibitors for full toxicity against the Colorado potato beetle would therefore be a combination of equistatin or p41 invariant chain fragment and stefin-like inhibitors.

Data set [3] deals with Colorado potato beetle larval gut extracts (potato protease inhibitor-insensitive cysteine proteases). The data set is described as follows: General proteolytic activity of Colorado potato beetle larval gut extracts, azocasein. The format is biochemical, Leptinotarsa decemlineata.
Description: as §1

Data set [4] concerns Colorado potato beetle larvae. Briefly: Toxicity of equistatin painted on potato leaves towards Colorado potato beetle larvae. The format is in vivo, Leptinotarsa decemlineata. As to the method: Potato tubers of cultivar Surprise (Solanum tuberosum) were sprouted. Sprouted tubers were planted in 1 l pots and grown for 3-4 weeks at a 22/18° C., 16/8 hr day night rhythm. Plants 10-15 cm high were placed in glass jars together with a paper wick on which 2 ul methyl jasmonate was pipeted. Jars were sealed immediately with parafilm and placed in a climate chamber of 30° C. with continuous light. Control plants were placed in a chamber of 25° C. with a 16-8 hr day night rhythm. After one day at 30° C. plants were taken from the jars and placed in the same chamber as the control. Plants were used on day 3. Freshly treated plants were used for each subsequent day of feeding. […] The top meristems were removed from the plants and painted on both sides with a 175 μM solution of recombinant equistatin in 0.3% agar obtained by mixing 1:1 a stock solution of 350 μM equistatin with 0.6% water agar. Controls were painted with 0.3% water agar. The agar solution was applied at a concentration of 30 μl/cm2.
The final concentration on the leaf was estimated to be 70 μM which is equivalent to 1.4 mg/g leaf. Painted leaves were placed in a tube containing 0.4% agar and out on top of a filterpaper inside a petridish. 21-26 newly hatched Colorado potato beetle larvae were placed on the leaves and the petridish was put in an incubator set at 28° C. Everyday fresh painted leaves replaced the old ones.

Data set [5] relates to leafminer proteases. The data set is described as follows: Protease activity of adult leafminer fly extract, FITC-hemoglobin. It counts as biochemical, Liriomyza trifolii. The note with it: leafminer pH 3.5; equistatin purified from sea anemone. As to the method: Adult western flower thrips (Frankliniella occidentalis) and leafmirer flies (Liriomyza trifolii) adult were harvested from a culture maintained on chrysanthemum plants and complete thrips and flies were homogenized in extraction on buffer (200 mM β-alanine-HCl, pH 3.5) in a volume of 5 times the weight of the insects. The buffer pH was at the previously determined pH optimum of protease activity towards hemoglobin. Final instar Colorado potato beetle larvae maintained on potato plants as described in example 5 were checked for gut aspartic protease activity by preparing a total gut extract in pH 3 buffer which is optimal for Colorado potato beetle aspartic proteases (200 mM glycine, pH 3). Guts were homogenized in 100 μl buffer per gut. Third instar western corn rootworm larvae maintained on corn roots were used to remove the guts. Ten guts were homogenized in 100 μl water and spinned twice to remove insoluble material. Two types of buffers were used in the enzymatic assay. One with a pH presumably favoring cysteine proteases (50 mM MES, pH 6.5; 0.6 mg/ml L-cysteine) and one for detecting aspartic proteases (200 mM glycine, pH 3). Supernatants were stored at −20° C.
2 μl gut extract was combined with 2 μl inhibitor (2 mM pepstatin in methanol, 4 mM E64 in water, 2 mg/ml recombinant equistatin in water. The concentration of the other proteinaceous inhibitors was not known exactly). Appropriate buffers were added to a final volume of 100 μl. After 15′ preincubation 20 μl substrate (5 mg/ml FITC-hemoglobin) was added and incubated for 30-45 min at 37 C.
Reaction was stopped by the addition of 100 μl 10% TCA. Tubes were centrifuged and 100 μl supernatant mixed with 100 μl 10 N NaOH was measured on a fluorimeter for the extent of hemoglobin hydrolysis. Measurements were done in duplicate on one (thrips, leafminer and western corn rootworm), or three (Colorado potato beetle) different gut extracts and varied by a maximum of +/−5%.

The mark [6] stands for this setting: recombinant equistatin on MeJa treated plants.
The mark [7] stands for this setting: recombinant equistatin on control plants.
Setting [8] is: recombinant equistatin on methyl jasmonate (MeJa) treated plants.

B1: equistatin: cysteine/aspartic protease inhibitor from sea anemone Actinia equina with three type I repeated thyroglobulin domains; purified or recombinant from E. coli (protein)
chain: SLTKCQQLQASANSGLIGTYVPQCKETGEFEEKQCWGSTGYCWCVDEDGKEILGTKIRGSPDCSRRKAALTLCQMMQAIIVNVPGWCGPPSCKADGSFDEVQCCASNGECYCVDKKGKELEGTRQQGRPTCERHLSECEEARIKAHSNSLRVEMFVPECLEDGSYNPVQCWPSTGYCWCVDEGGVKVPGSDVRFKRPTC
modifications: left off: large carriers; small tags and cut ends
notes: purified or recombinant from E. coli
Consider B1, for which the Ki in data set [1] (Ki calculated from the ratio kd/ka) is 0.57 ± 0.04 nM. In addition, in data set [1] (continuous rate assay, printed value is 10^4 × kd), the “10^4 × kd” value worked out at 65 ± 1.5 s^−1. For the same molecule, the “10^−6 × ka” value in data set [1] (continuous rate assay, printed value is 10^−6 × ka) was found to be 12 ± 0.6 M^−1 s^−1. In addition, the “% of residual activity, equimolar” value in data set [2] (equimolar) amounted to 85%. For the same molecule, in data set [2] (excess inhibitor), the “% of residual activity, excess inhibitor” value amounted to 75%. Also, the “Residual activity in excess of inhibitor” value in data set [3] was found to be 10%. In data set [4] (setting [6]), the “percent mortality, day 1” value is reported as 0%; the “percent mortality, day 2” value was found to be 23%; the “percent mortality, day 3” value is recorded as 77%; the “percent mortality, day 4” value stood at 92%. For the same molecule, in data set [4] (setting [7]), the “percent mortality, day 1” value came out at 0%; the “percent mortality, day 2” value amounted to 10%; the “Larval weight, day 3” value stood at 0.5 mg/larvae; the “percent mortality, day 3” value was found to be 52%. In data set [4] (setting [7]), the “Larval weight, day 4” value is 0.7 mg/larvae and the “percent mortality, day 4” value amounted to 76%. Moreover, in data set [4] (setting [8]), the “Larval weight, day 3” value was “n.g” and the “Larval weight, day 4” value is on record as “n.g”. In addition, the residual protease activity in data set [5] worked out at 24%.
